Positions count from the first letter of the chain named. Numbers in names are those of the source.

T1: Human CD3eg linker (human)
T1 construct: Single-chain construct; also called recombinant human CD3
T1 chain: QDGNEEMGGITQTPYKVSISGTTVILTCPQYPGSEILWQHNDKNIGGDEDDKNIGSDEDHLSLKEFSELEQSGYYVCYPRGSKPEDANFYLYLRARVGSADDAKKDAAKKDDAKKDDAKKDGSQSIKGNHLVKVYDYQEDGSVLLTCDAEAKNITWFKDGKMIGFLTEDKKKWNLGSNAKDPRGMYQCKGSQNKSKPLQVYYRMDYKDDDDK

B1: H183/L072 VL A25V (antibody, name in Kabat numbering, V domains shown)
VH: QVQLVESGGGLVQPGRSLRLSCAASGFTFSNAWMHWVRQAPGKGLEWVAQIKDKGNAYAAYYAPSVKGRFTISRDDSKNSIYLQMNSLKTEDTAVYYCHYVHYASASTVLPAFGVDAWGQGTTVTVSS
VL: DIVMTQSPLSLPVTPGEPASISCQVSQELVHMNRNTYLHWYQQKPGQAPRLLIYKVSNRFPGVPDRFSGSGSGTDFTLKISRVEAEDVGVYYCAQGTSVPFTFGQGTKLEIK
B2: H183/L072 VL A89K (antibody, name in Kabat numbering, V domains shown)
VH: B1 VH
VL: B1 VL with V25A, A94K
B3: H183/L072 VL E27aN (antibody, name in Kabat numbering, V domains shown)
VH: B1 VH
VL: B1 VL with V25A, E28N
B4: H183/L072 VL A89T (antibody, name in Kabat numbering, V domains shown)
VH: B1 VH
VL: B1 VL with V25A, A94T
B5: H183/L072 VL E27aQ (antibody, name in Kabat numbering, V domains shown)
VH: B1 VH
VL: B1 VL with V25A, E28Q
B6: H183/L072 VL E27aV (antibody, name in Kabat numbering, V domains shown)
VH: B1 VH
VL: B1 VL with V25A, E28V
B7: H183/L072 VL E27aH (antibody, name in Kabat numbering, V domains shown)
VH: B1 VH
VL: B1 VL with V25A, E28H
B8: H183/L072 VL E27aW (antibody, name in Kabat numbering, V domains shown)
VH: B1 VH
VL: B1 VL with V25A, E28W
B9: H183/L072 VL A89E (antibody, name in Kabat numbering, V domains shown)
VH: B1 VH
VL: B1 VL with V25A, A94E
B10: H183/L072 VL A89W (antibody, name in Kabat numbering, V domains shown)
VH: B1 VH
VL: B1 VL with V25A, A94W
B11: H183/L072 VL E27aS (antibody, name in Kabat numbering, V domains shown)
VH: B1 VH
VL: B1 VL with V25A, E28S
B12: H183/L072 VL A89D (antibody, name in Kabat numbering, V domains shown)
VH: B1 VH
VL: B1 VL with V25A, A94D
B13: H183/L072 VL A89F (antibody, name in Kabat numbering, V domains shown)
VH: B1 VH
VL: B1 VL with V25A, A94F
B14: H183/L072 VL E27aY (antibody, name in Kabat numbering, V domains shown)
VH: B1 VH
VL: B1 VL with V25A, E28Y
B15: H183/L072 VL E27aT (antibody, name in Kabat numbering, V domains shown)
VH: B1 VH
VL: B1 VL with V25A, E28T
B16: H183/L072 VL E27aR (antibody, name in Kabat numbering, V domains shown)
VH: B1 VH
VL: B1 VL with V25A, E28R
B17: H183/L072 VL A89S (antibody, name in Kabat numbering, V domains shown)
VH: B1 VH
VL: B1 VL with V25A, A94S
B18: H183/L072 VL A89H (antibody, name in Kabat numbering, V domains shown)
VH: B1 VH
VL: B1 VL with V25A, A94H
B19: H183/L072 VL A89V (antibody, name in Kabat numbering, V domains shown)
VH: B1 VH
VL: B1 VL with V25A, A94V
B20: H183/L072 VL E27aM (antibody, name in Kabat numbering, V domains shown)
VH: B1 VH
VL: B1 VL with V25A, E28M
B21: H183/L072 VL E27aL (antibody, name in Kabat numbering, V domains shown)
VH: B1 VH
VL: B1 VL with V25A, E28L
B22: H183/L072 VL A89G (antibody, name in Kabat numbering, V domains shown)
VH: B1 VH
VL: B1 VL with V25A, A94G
B23: H183/L072 VL A89M (antibody, name in Kabat numbering, V domains shown)
VH: B1 VH
VL: B1 VL with V25A, A94M
B24: H183/L072 VL E27aF (antibody, name in Kabat numbering, V domains shown)
VH: B1 VH
VL: B1 VL with V25A, E28F
B25: H183/L072 VL E27aG (antibody, name in Kabat numbering, V domains shown)
VH: B1 VH
VL: B1 VL with V25A, E28G
B26: H183/L072 VL E27aI (antibody, name in Kabat numbering, V domains shown)
VH: B1 VH
VL: B1 VL with V25A, E28I
B27: H183/L072 VL E27aK (antibody, name in Kabat numbering, V domains shown)
VH: B1 VH
VL: B1 VL with V25A, E28K
B28: H183/L072 VL E27aD (antibody, name in Kabat numbering, V domains shown)
VH: B1 VH
VL: B1 VL with V25A, E28D
B29: H183/L072 VL A89Q (antibody, name in Kabat numbering, V domains shown)
VH: B1 VH
VL: B1 VL with V25A, A94Q
B30: H183/L072 VL E27aA (antibody, name in Kabat numbering, V domains shown)
VH: B1 VH
VL: B1 VL with V25A, E28A
B31: H183/L072 VL E27aP (antibody, name in Kabat numbering, V domains shown)
VH: B1 VH
VL: B1 VL with V25A, E28P

This assay has as its target T1, Human CD3eg linker. Nature of the assay: SPR; fold vs parent H183/L072. (In SPR one partner is held on a chip, and binding of the other changes the refractive index at the surface.)
B1: the “fold change of affinity” value stood at 0.9 fold.
Under B2 stands 1.1 fold.
Under B3 stands 1.1 fold; under B4, 0 fold; under B5, 1.2 fold.
B6: the “fold change of affinity” value was 1 fold.
For the molecule B7, the “fold change of affinity” value came out at 1.4 fold.
Regarding B8, the “fold change of affinity” value came out at 1.1 fold.
Then B9, with 0 fold; and B10, with 0.1 fold; and B11, with 1.3 fold.
Under B12 stands 0 fold; under B13, 0.2 fold.
Under B14 stands 1.2 fold; under B15, 1.3 fold; under B16, 1.2 fold.
B17: the “fold change of affinity” value was 0.6 fold.
Then B18, with 0 fold.
Under B19 stands 0.4 fold; under B20, 1.2 fold; under B21, 1.2 fold.
Then B22, with 0.7 fold; and B23, with 0.1 fold; and B24, with 1.1 fold.
In the case of B25, the “fold change of affinity” value came to 1.4 fold.
Regarding B26, the “fold change of affinity” value was determined as 1.1 fold.
Then B27, with 1.1 fold.
Then B28, with 1.1 fold; and B29, with 0.2 fold; and B30, with 1.2 fold.
Under B31 stands 1 fold.

(Values after US20210388087A1 (Chugai, published 2021).)
